From patent US20230357386A1 (EISAI R AND D MANAGEMENT, published 2023) come the findings set out here.

What is called koff is a measure of how fast the partners let go of each other. By kon is commonly meant the second-order rate constant of association. For orientation: EC50 (read off the curve) means the midpoint of the concentration-response curve. By IC50 is commonly meant the concentration at which inhibition is half-maximal. As a reminder, the Kd is the constant that tells how readily two partners part at equilibrium.

The target in experiment [1] is T1, human EphA4 extracellular domain-SEAP-His protein (human).
T1 construct: also called Human EphA4 extracellular domain-SEAP-His10
T1 sequence (chain, as listed by the source limits assumed): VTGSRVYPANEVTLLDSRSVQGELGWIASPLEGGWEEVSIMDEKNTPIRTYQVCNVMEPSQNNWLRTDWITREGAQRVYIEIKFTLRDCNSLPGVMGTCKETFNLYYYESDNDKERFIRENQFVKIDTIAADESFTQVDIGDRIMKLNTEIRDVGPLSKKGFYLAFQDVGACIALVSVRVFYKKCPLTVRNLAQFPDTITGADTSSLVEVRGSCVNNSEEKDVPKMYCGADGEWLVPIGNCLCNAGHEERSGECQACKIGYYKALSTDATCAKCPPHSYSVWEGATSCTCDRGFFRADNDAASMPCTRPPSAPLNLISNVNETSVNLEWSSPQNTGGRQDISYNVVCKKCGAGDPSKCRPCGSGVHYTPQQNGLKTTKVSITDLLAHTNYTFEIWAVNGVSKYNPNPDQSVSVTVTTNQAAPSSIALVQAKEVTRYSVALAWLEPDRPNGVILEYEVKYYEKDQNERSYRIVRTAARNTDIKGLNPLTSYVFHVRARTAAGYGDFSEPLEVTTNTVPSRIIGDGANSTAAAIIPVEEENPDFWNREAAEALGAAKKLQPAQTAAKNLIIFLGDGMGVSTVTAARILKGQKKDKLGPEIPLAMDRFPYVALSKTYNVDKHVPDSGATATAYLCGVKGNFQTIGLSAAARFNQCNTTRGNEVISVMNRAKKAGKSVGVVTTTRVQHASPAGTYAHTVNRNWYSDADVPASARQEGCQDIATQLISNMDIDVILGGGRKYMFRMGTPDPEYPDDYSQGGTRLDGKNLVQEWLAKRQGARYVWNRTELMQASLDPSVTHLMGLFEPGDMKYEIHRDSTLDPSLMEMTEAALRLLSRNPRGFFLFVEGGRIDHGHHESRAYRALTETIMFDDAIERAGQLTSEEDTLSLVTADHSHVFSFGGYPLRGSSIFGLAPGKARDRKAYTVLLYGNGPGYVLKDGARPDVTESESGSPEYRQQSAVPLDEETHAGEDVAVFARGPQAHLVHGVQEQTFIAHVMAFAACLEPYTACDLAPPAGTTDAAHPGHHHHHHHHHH
Description: SPR (Biacore T200): human EphA4 extracellular domain-SEAP-His10 captured by anti-His antibody on CM5, antibody as analyte 1.6-100 nM, 1:1 fit. The procedure: (§1) The binding affinity of the antibody A and the antibody B to human EphA4 was determined by surface plasmon resonance (SPR) using Biacore T200 (Cytiva). First, an anti-His antibody (Cytiva, 28-9950-56) was immobilized on sensor chip CM5. The immobilization was performed by the amine coupling method using N-hydroxysuccinimide (NHS) and N-ethyl-N′-(3-dimethylaminopropyl)carbodiimide hydrochloride (EDC). Ethanolamine was used in blocking (the sensor chip and the reagents for immobilizations were all manufactured by Cytiva). The antibody was diluted with a buffer solution for immobilization (10 mM sodium acetate, pH 4.5) into 3 µg/mL and immobilized on the sensor chip according to the protocol attached to Biacore T200. Human EphA4 extracellular domain-SEAP-His10 was diluted with a running buffer solution HBS-EP+ (Cytiva, BR-1001-69), injected onto a flow cell for 120 seconds, and captured (amount of the antibody captured: approximately 6 RU). Subsequently, the antibody A or the antibody B serially diluted in the range of 100, 50, 25, 12.5, 6.3, 3.2, 1.6, and 0 nM using HBS-EP+ was added to the sensor chip for 120 seconds. Binding reaction curves were sequentially observed at the time of the addition (association phase, 120 sec) and after the completion of the addition (dissociation phase, 600 sec). After the completion of each observation, the sensor chip was regenerated by the addition of 3 M MgCl₂ (60 sec). The obtained binding reaction curves were subjected to fitting analysis using 1:1 binding models and software BIA evaluation attached to the system to calculate the binding affinity (KD = kd / ka) to human EphA4. The experiment mentioned above was carried out three times, and an average value of each parameter was calculated.
(In general: SPR reads the build-up and loss of mass on a sensor chip optically.)

Experiment [2] has as its target T2, human EphA4 extracellular domain-MBP-His protein (human).
T2 construct: also called human EphA4 extracellular domain (ECD); ECD
Description: ELISA, domain-MBP-His captured by anti-6-His antibody, antibody 10 nM. The procedure: The antibody A, the antibody B, and human IgG (Sigma-Aldrich Co. LLC) were evaluated for their binding activity against each EphA4 according to the following steps. Each well of a 96-well plate (Nunc) was coated with a rabbit anti-6-His antibody (Bethyl Laboratories, Inc.). After incubation at room temperature for 1 hour, each well was blocked with 1% BlockAce (KAC Co., Ltd.) overnight at 4° C. After washing with 0.02% Tween 20/PBS three times, each of the human EphA4 extracellular domain-, human EphA4 ligand-binding domain-, human EphA4 fibronectin type III domain 1-, and human EphA4 fibronectin type III domain 2-MBP-His proteins or the MBP-His protein (final concentration: 1 nM) was seeded in each well and incubated at room temperature for 1 hour. After washing three times, the antibody A, the antibody B, or human IgG (10 nM) was added to each well and incubated at room temperature for 1 hour. After washing three times, a horseradish peroxidase-labeled rabbit anti-human IgG Fcy fragment antibody (Jackson ImmunoResearch Laboratories, Inc.) was added thereto and incubated at room temperature for 1 hour. After washing three times, a TMBZ (3,3′,5,5′-tetramethylbenzidine, Kirkegaard & Perry Laboratories, Inc.) solution was added to each well. […] The absorbance at 450 nm and 650 nm was read using a microplate reader (Thermo Fisher Scientific Inc.).

Experiment [3] concerns the target T3, rat EphA4 extracellular domain-SEAP-His protein (rat, UniProt Q03137 20-547 (mouse entry)).
T3 construct: not shown: SEAP and histidine tag
Description: ELISA: rat EphA4 extracellular domain-SEAP-His captured by anti-6-His antibody, detection with HRP anti-human IgG Fc. The procedure:
(§2) The antibody A and the antibody B were evaluated for their binding activity against each EphA4 according to the following steps. Each well of a 96-well plate (Nunc) was coated with a rabbit anti-6-His antibody (Bethyl Laboratories, Inc.). After incubation at room temperature for 1 hour, each well was blocked with 1% BlockAce (KAC Co., Ltd.) overnight at 4° C. After washing with 0.02% Tween 20/PBS three times, each of the mouse, rat, monkey and human EphA4 extracellular domain-SEAP-His proteins (final concentration: 1 nM) was seeded in each well and incubated at room temperature for 1 hour. After washing three times, the antibody A or the antibody B (0, 0.00013, 0.00064, 0.0032, 0.016, 0.08, 0.4, 2, and 10 µg/mL) was added to each well and incubated at room temperature for 1 hour. After washing three times, a horseradish peroxidase-labeled rabbit anti-human IgG Fcy fragment antibody (Jackson ImmunoResearch Laboratories, Inc.) was added thereto and incubated at room temperature for 1 hour. After washing three times, a TMBZ (3,3′,5,5′-tetramethylbenzidine, Kirkegaard & Perry Laboratories, Inc.) solution was added to each well. An equal amount of a reaction stopping solution (2 N H₂SO₄, FUJIFILM Wako Pure Chemical Corp.) was added to each well. The absorbance at 450 nm was read using a microplate reader (Thermo Fisher Scientific Inc.).
On the technique in general: In an ELISA, binding on a coated surface is turned into a signal by an enzyme label.

Experiment [4] has as its target T1, human EphA4 extracellular …. Description: competition ELISA, captured human EphA4 ECD-SEAP-His; competitor biotinylated human Ephrin B3-Fc (2.3 nM). The procedure: (§3) The antibody A and the antibody B were evaluated for their inhibitory activity against the binding between human EphA4 and its human ligand according to the following steps. Each well of a 96-well plate (Nunc) was coated with an anti-alkaline phosphatase antibody (Thermo Fisher Scientific Inc.). After incubation overnight at 4° C., each well was blocked with 1% BlockAce (KAC Co., Ltd.) overnight at 4° C. After washing with 0.02% Tween 20/PBS three times, the human EphA4 extracellular domain-SEAP-His protein (final concentration: 10 nM) was seeded in each well and incubated at room temperature for 1 hour. After washing three times, ligands and serially diluted antibody A or antibody B (0, 0.003, 0.01, 0.03, 0.1, 0.3, 1, 3, 10, 30, 100, 300, 1000, and 3000 nM) were added to each well. The ligands used were biotinylated human Ephrin A5-Fc chimera (R&D Systems, Inc., final concentration: 0.7 nM) and biotinylated human Ephrin B3-Fc chimera (R&D Systems, Inc., final concentration: 2.3 nM). After incubation at room temperature for 1 hour and subsequent washing three times, a horseradish peroxidase-labeled streptavidin (GE Healthcare Japan Corp.) was added thereto and incubated at room temperature for 1 hour. […] The absorbance at 450 nm was read using a microplate reader (Thermo Fisher Scientific Inc.).

The target in experiment [5] is human EphA4 fibronectin type III domain 2-MBP-His protein (human, UniProt P54764 436-547; P0AEX9 29-392 = MBP). Description: ELISA, domain-MBP-His captured by anti-6-His antibody. How it is done: (§4) The antibody A, the antibody B, and human IgG (Sigma-Aldrich Co. LLC) were evaluated for their binding activity against each EphA4 according to the following steps. Each well of a 96-well plate (Nunc) was coated with a rabbit anti-6-His antibody (Bethyl Laboratories, Inc.). After incubation at room temperature for 1 hour, each well was blocked with 1% BlockAce (KAC Co., Ltd.) overnight at 4° C. After washing with 0.02% Tween 20/PBS three times, each of the human EphA4 extracellular domain-, human EphA4 ligand-binding domain-, human EphA4 fibronectin type III domain 1-, and human EphA4 fibronectin type III domain 2-MBP-His proteins or the MBP-His protein (final concentration: 1 nM) was seeded in each well and incubated at room temperature for 1 hour. After washing three times, the antibody A, the antibody B, or human IgG (10 nM) was added to each well and incubated at room temperature for 1 hour. After washing three times, a horseradish peroxidase-labeled rabbit anti-human IgG Fcy fragment antibody (Jackson ImmunoResearch Laboratories, Inc.) was added thereto and incubated at room temperature for 1 hour. After washing three times, a TMBZ (3,3′,5,5′-tetramethylbenzidine, Kirkegaard & Perry Laboratories, Inc.) solution was added to each well. An equal amount of a reaction stopping solution (2 N H₂SO₄, FUJIFILM Wako Pure Chemical Corp.) was added to each well. The absorbance at 450 nm and 650 nm was read using a microplate reader (Thermo Fisher Scientific Inc.).

In experiment [6] the target is human EphA4 fibronectin type III domain 1-MBP-His protein (human, UniProt P54764 326-439; P0AEX9 29-392 = MBP). The description is as above. How it is done: as §4
Experiment [7] deals with T1, human EphA4 extracellular …. Description: competition ELISA, captured human EphA4 ECD-SEAP-His; competitor biotinylated human Ephrin A5-Fc (0.7 nM). The procedure:
as §3

The target of experiment [8] is T4, mouse EphA4 extracellular domain-SEAP-His protein (mouse, UniProt Q03137 20-547).
T4 construct: not shown: SEAP and histidine tag
Description: ELISA: mouse EphA4 extracellular domain-SEAP-His captured by anti-6-His antibody, detection with HRP anti-human IgG Fc. How it is done:
as §2

In experiment [9] the target is T5, monkey EphA4 extracellular domain-SEAP-His protein (monkey).
T5 construct: not shown: SEAP and histidine tag
T5 sequence (chain, as listed by the source): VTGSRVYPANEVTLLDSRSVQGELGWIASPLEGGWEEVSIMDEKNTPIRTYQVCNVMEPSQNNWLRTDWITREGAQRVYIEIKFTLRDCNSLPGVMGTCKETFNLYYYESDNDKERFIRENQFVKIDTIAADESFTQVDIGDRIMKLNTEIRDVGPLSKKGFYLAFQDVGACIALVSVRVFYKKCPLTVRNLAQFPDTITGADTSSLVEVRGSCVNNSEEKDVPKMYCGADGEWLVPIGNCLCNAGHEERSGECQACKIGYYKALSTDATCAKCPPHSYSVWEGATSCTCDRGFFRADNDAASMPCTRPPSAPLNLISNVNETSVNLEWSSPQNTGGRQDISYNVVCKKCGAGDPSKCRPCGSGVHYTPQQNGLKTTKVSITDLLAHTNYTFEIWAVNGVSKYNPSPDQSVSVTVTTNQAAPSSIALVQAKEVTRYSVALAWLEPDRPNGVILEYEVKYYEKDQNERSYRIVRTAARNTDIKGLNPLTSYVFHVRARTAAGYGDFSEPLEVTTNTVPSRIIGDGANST
Description: ELISA: monkey EphA4 extracellular domain-SEAP-His captured by anti-6-His antibody, detection with HRP anti-human IgG Fc. How it is done: as §2

The target in experiment [10] is T1, human EphA4 extracellular …. Description: SPR (Biacore T200), EphA4 ECD-SEAP-His10 captured by anti-His antibody, antibody as analyte, 1:1 model, mean of three runs. How it is done:
as §1, with “Binding reaction curves were sequentially observed at the time of the addition (association phase, 120 sec) and after the completion of the addition (dissociation phase, 600 sec). After the completion of each observation, the sensor chip was regenerated by the addition of 3 M MgCl₂ (60 sec). The obtained binding reaction curves were subjected to fitting analysis using 1:1 binding models and software BIA evaluation attached to the system to calculate the binding affinity (KD = kd / ka) to human EphA4.” left out

Experiment [11] has the same target. Description: ELISA: human EphA4 extracellular domain-SEAP-His captured by anti-6-His antibody, detection with HRP anti-human IgG Fc. How it is done: as §2

B1: antibody A (human anti-EphA4 monoclonal antibody) (antibody, V domains shown)
VH: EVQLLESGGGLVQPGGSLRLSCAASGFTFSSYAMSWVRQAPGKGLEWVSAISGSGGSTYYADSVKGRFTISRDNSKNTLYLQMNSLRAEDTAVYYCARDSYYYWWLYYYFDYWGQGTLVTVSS
VL: SSELTQDPAVSVALGQTVRITCQGDSLRSYYASWYQQKPGQAPVLVIYGKNNRPSGIPDRFSGSSSGNTASLTITGAQAEDEADYYCQSSYSSSYSYVFGGGTKLTVLG
notes: Human IgG2 / lambda, from a phage library scFv converted to IgG; made in Expi293F or CHOK1SV cells
In [1], B1 showed a koff of 0.000251 s⁻¹. In experiment [1], this molecule registered a kon of 537000 M⁻¹ s⁻¹. Also, the binding result was “binds” in experiment [2], “no binding (tested: 10 nM)” in [5] and “no binding (tested: 10 nM)” in experiment [6]. Also, the “EC50 (read off the curve)” value in [3], in experiment [8], in experiment [9] and in [11] was approximately 20 pM in each case. The IC50 in experiment [4] is 3 nM; in [7] it was 3.9 nM. In experiment [10], this molecule displayed a Kd of 0.467 nM.

B2: antibody B (human anti-EphA4 monoclonal antibody) (antibody, human IgG1, lambda, V domains shown)
VH: EVQLLESGGGLVQPGGSLRLSCAASGFTFSSFAMSWVRQAPGKGLEWVSAISGSGGSTYYADSVKGRFTISRDNSKNTLYLQMNSLRAEDTAVYYCARDDYYPYWWYYYYFDYWGQGTLVTVSS
VL: SSELTQDPAVSVALGQTVRITCQGDSLRSYFASWYQQKPGQAPVLVIYGKNNRPSGIPDRFSGSSSGNTASLTITGAQAEDEADYYCQSSYSSSYSYVFGGGTKLTVLG
notes: Human IgG1/2 (IgG1 CH1 and hinge, IgG2 CH2 and CH3) / lambda; made in Expi293F or CHOK1SV cells
In experiment [1], B2 yielded a koff of 8.01e-05 s⁻¹. In [1], this molecule returned a kon of 512000 M⁻¹ s⁻¹. In addition, the binding result in experiment [2] was “binds”; in [5] it was “no binding (tested: 10 nM)”; in experiment [6], “no binding (tested: 10 nM)”. Further, the “EC50 (read off the curve)” value in experiment [3], in [8], in [9] and in experiment [11] was approximately 40 pM each time. In addition, the IC50 in experiment [4] stood at 4.1 nM; in experiment [7], 4.8 nM. Further, in experiment [10], the Kd was found to be 0.156 nM.
